Results: US20190134196A1 (GMAX BIOPHARM, published 2019)
Positions count from the first letter of the chain named. Each block holds one binder with its values, some of them ahead of it.

How the values were obtained:
[1] = molecular target: T1, human endothelin A receptor (human, UniProt P25101 21-427); assay: cell-based or functional assay
T1 sequence: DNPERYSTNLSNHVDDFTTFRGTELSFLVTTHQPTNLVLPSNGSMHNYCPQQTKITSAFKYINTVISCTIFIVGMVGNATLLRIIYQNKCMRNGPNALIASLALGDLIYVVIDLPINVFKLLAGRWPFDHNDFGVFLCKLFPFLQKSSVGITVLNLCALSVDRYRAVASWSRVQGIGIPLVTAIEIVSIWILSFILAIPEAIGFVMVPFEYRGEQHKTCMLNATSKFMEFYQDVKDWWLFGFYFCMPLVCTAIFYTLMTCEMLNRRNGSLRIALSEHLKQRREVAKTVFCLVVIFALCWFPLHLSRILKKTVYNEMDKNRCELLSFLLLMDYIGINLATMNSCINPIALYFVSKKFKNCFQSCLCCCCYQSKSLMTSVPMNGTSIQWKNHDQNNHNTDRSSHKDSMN

[2] = molecular target: T1, human endothelin A receptor; assay: FACS on CHO-DHFR-ETAR cells, CHO-DHFR- cells as negative control

binding result [2]: binds
B3: ETAR antibody A-12 (antibody, V domains shown)
VH: EVKLVESGGRLVQPGNSLRLSCATSGFTFSDYYMSWVRQTPGRALEWLSFIRNRANGYTTEYSASVKGRFTISRDNSQSILYLHMSTLRPEDSATYYCVRDSYHYGYFDVWGAGTTVTVSS
VL: EIQMTQTPSSLSASLGDRVTITCSASQGINNYLNWYQQKPGGKTRLLIYYTSTLQSGVPSRFSGSGSGTHYSLTISNLEPEDIATYYCQQFSKLRTFGGGTRLEIKR
notes: Recombinant antibody; also called L12H12

binding result [2]: binds
B4: ETAR antibody A-2 (antibody, V domains shown)
VH: QIQLVQSGAELAKPGASVRMSCETSGYTFTSYWIHWIKERPGQGLEWIGYINPDTDYSEYNQKFKDKARLTADKSSTTAYMELNSLTFDDSAVYYCASAGYYFFDFWGQGTTLTVSS
VL: DIQMTQSPASLSTSVGETVTITCRASENIYSYLAWYQQRQGKSPHLLVNNAKTLAEGVPSRFSGSGSGTHFSLRISGLQPEDFGSYYCQHHYGIPFTFGGGTKLSIKR
notes: Recombinant antibody; also called L2H2

Second part, the binder before the results:

B1: ETAR antibody A-9 (antibody, V domains shown)
VH: EVQLQQPGGGLVQPGGSLTLSCATSGFTFSSYGMSWVRQTPAKRLELVATISTNGATANYPDSVKGRFTISRDNAKSTLYLQMRSLKSEDTAMYYCATEKGAMGYWGQGTSVTVSS
VL: DVLMTQTPLSLPVSLGDQASISCRSSQNIVHSTGNTYLEWYLQKPGQSPKLLIYKVSNRFSGVPNRFRGSGSGTDFTLKITRVEAEDLGIYYCFQGSHFPFTFGSGTKLEIKR
IC50, calcium flux assay (inhibition of human ETAR) [1]: 87.8 nM

B2: ETAR antibody A-7 (antibody, V domains shown)
VH: EVHLVESGGGLVQPGGSLKLSCAASGFTFSTYGMSWVRQTPDKRLELVATINTNGGTTYYRDSVKGRFTISRDNAKNTLYLQMSSLKSDDTAMYYCARDYGAMDYWGQGTSVTVSS
VL: B1 VL with Q18H, N28Y, N35T, K50Q, N65D, R68T, K79R, T81S, I90V, Y92F
notes: Recombinant antibody; also called L7H7
binding result [2]: binds
